From the supplement of paper PMC11246515
± gives the standard deviation of the averaged measurements.

Test: total protein half-life in vivo (active degradation + dilution); higher = more stable protein
[1] = E. coli NCM3722 delta-clpP delta-lon delta-hslV, growth: N-lim chemostat, doubling time 6 h
[2] = E. coli NCM3722 delta-clpP, growth: N-lim chemostat, doubling time 6 h
[3] = E. coli NCM3722 delta-hslV, growth: N-lim chemostat, doubling time 6 h
[4] = E. coli NCM3722 delta-lon, growth: N-lim chemostat, doubling time 6 h
[5] = E. coli NCM3722 delta-smpB, growth: N-lim chemostat, doubling time 6 h
[6] = wild type E. coli NCM3722, growth: C-lim chemostat, doubling time 3 h
[7] = wild type E. coli NCM3722, growth: C-lim chemostat, doubling time 6 h
[8] = wild type E. coli NCM3722, growth: C-lim chemostat, doubling time 12 h
[9] = wild type E. coli NCM3722, growth: N-lim chemostat, doubling time 6 h
[10] = wild type E. coli NCM3722, growth: N-lim chemostat, doubling time 12 h
[11] = wild type E. coli NCM3722, growth: P-lim chemostat, doubling time 6 h
[12] = wild type E. coli NCM3722, growth: P-lim chemostat, doubling time 12 h

| Sequence | total protein half-life in vivo [1] [h] | total protein half-life in vivo [2] [h] | total protein half-life in vivo [3] [h] | total protein half-life in vivo [4] [h] | total protein half-life in vivo [5] [h] | total protein half-life in vivo [6] [h] | total protein half-life in vivo [7] [h] | total protein half-life in vivo [8] [h] | total protein half-life in vivo [9] [h] | total protein half-life in vivo [10] [h] | total protein half-life in vivo [11] [h] | total protein half-life in vivo [12] [h] |
| --- | --- | --- | --- | --- | --- | --- | --- | --- | --- | --- | --- | --- |
| MPHSYDYDAIVIGSGPGGEGAAMGLVKQGARVAVIERYQNVGGGCTHWGTIPSKALRHAVSRIIEFNQNPLYSDHSRLLRSSFADILNHADNVINQQTRMRQGFYERNHCEILQGNARFVDEHTLALDCPDGSVETLTAEKFVIACGSRPYHPTDVDFTHPRIYDSDSILSMHHEPRHVLIYGAGVIGCEYASIFRGMDVKVDLINTRDRLLAFLDQEMSDSLSYHFWNSGVVIRHNEEYEKIEGCDDGVIMHLKSGKKLKADCLLYANGRTGNTDSLALQNIGLETDSRGQLKVNSMYQTAQPHVYAVGDVIGYPSLASAAYDQGRIAAQALVKGEATAHLIEDIPTGIYTIPEISSVGKTEQQLTAMKVPYEVGRAQFKHLARAQIVGMNVGTLKILFHRETKEILGIHCFGERAAEIIHIGQAIMEQKGGGNTIEYFVNTTFNYPTMAEAYRVAALNGLNRLF | 4.47 ± 0.55 | 3.95 ± 0.2 | 4.17 ± 0.28 | 3.85 ± 0.34 | 4.01 ± 0.21 | 2.74 ± 0.36 | 6.09 ± 0.52 | 10.5 ± 0.61 | 4.46 ± 0.093 | 6.87 ± 0.64 | 6.15 ± 0.82 | 12.2 ± 0.42 |
| MTELPIDENTPRILIVEDEPKLGQLLIDYLRAASYAPTLISHGDQVLPYVRQTPPDLILLDLMLPGTDGLTLCREIRRFSDIPIVMVTAKIEEIDRLLGLEIGADDYICKPYSPREVVARVKTILRRCKPQRELQQQDAESPLIIDEGRFQASWRGKMLDLTPAEFRLLKTLSHEPGKVFSREQLLNHLYDDYRVVTDRTIDSHIKNLRRKLESLDAEQSFIRAVYGVGYRWEADACRIV | 4.22 ± 0.48 | 4.1 ± 0.35 | 4.1 ± 0.073 | 4.58 ± 0.1 | 4.01 ± 0.14 | 2.89 ± 0.092 | 5.54 ± 0.16 | 11.7 ± 2.5 | 4.05 ± 0.21 | 6.62 ± 0.32 | 5.58 ± 0.26 | 13.5 ± 0.37 |
| MLGLKQVHHIAIIATDYAVSKAFYCDILGFTLQSEVYREARDSWKGDLALNGQYVIELFSFPFPPERPSRPEACGLRHLAFSVDDIDAAVAHLESHNVKCETIRVDPYTQKRFTFFNDPDGLPLELYEQ | 3.94 ± 0.96 | 4.26 ± 0.34 | – | 4.65 ± 0.89 | 3.22 | 2.51 | 5.13 | 11.4 | 3.54 | 4.57 ± 0.75 | 6.05 ± 1.1 | 11.7 ± 0.74 |
| MQFDYIIIGAGSAGNVLATRLTEDPNTSVLLLEAGGPDYRFDFRTQMPAALAFPLQGKRYNWAYETEPEPFMNNRRMECGRGKGLGGSSLINGMCYIRGNALDLDNWAQEPGLENWSYLDCLPYYRKAETRDMGENDYHGGDGPVSVTTSKPGVNPLFEAMIEAGVQAGYPRTDDLNGYQQEGFGPMDRTVTPQGRRASTARGYLDQAKSRPNLTIRTHAMTDHIIFDGKRAVGVEWLEGDSTIPTRATANKEVLLCAGAIASPQILQRSGVGNAELLAEFDIPLVHELPGVGENLQDHLEMYLQYECKEPVSLYPALQWWNQPKIGAEWLFGGTGVGASNHFEAGGFIRSREEFAWPNIQYHFLPVAINYNGSNAVKEHGFQCHVGSMRSPSRGHVRIKSRDPHQHPAILFNYMSHEQDWQEFRDAIRITREIMHQPALDQYRGREISPGVECQTDEQLDEFVRNHAETAFHPCGTCKMGYDEMSVVDGEGRVHGLEGLRVVDASIMPQIITGNLNATTIMIGEKIADMIRGQEALPRSTAGYFVANGMPVRAKK | 5.76 ± 0.8 | – | – | – | – | – | – | > 16 | 2.75 | – | – | 4.08 |
| MAQVAIITASDSGIGKECALLLAQQGFDIGITWHSDEEGAKDTAREVVSHGVRAEIVQLDLGNLPEGALALEKLIQRLGRIDVLVNNAGAMTKAPFLDMAFDEWRKIFTVDVDGAFLCSQIAARQMVKQGQGGRIINITSVHEHTPLPDASAYTAAKHALGGLTKAMALELVRHKILVNAVAPGAIATPMNGMDDSDVKPDAEPSIPLRRFGATHEIASLVVWLCSEGANYTTGQSLIVDGGFMLANPQFNPE | 5.0837 ± 0.0019 | 4.64 ± 0.2 | 5.14 ± 0.54 | 4.36 ± 0.089 | 4.64 ± 0.24 | 2.863 ± 0.007 | 5.19 ± 0.38 | 11 ± 0.19 | 4.81 ± 0.42 | 7.86 ± 0.13 | 5.6 ± 0.22 | 10.9 ± 0.34 |
| MLRIIDTETCGLQGGIVEIASVDVIDGKIVNPMSHLVRPDRPISPQAMAIHRITEAMVADKPWIEDVIPHYYGSEWYVAHNASFDRRVLPEMPGEWICTMKLARRLWPGIKYSNMALYKTRKLNVQTPPGLHHHRALYDCYITAALLIDIMNTSGWTAEQMADITGRPSLMTTFTFGKYRGKAVSDVAERDPGYLRWLFNNLDSMSPELRLTLKHYLENT [P0AEK0] | 5.44 ± 2 | 1.56 ± 0.12 | 1.2033 ± 0.0011 | 2.29 ± 0.6 | 0.987 ± 0.0014 | 1.24 ± 0.16 | 2 ± 0.16 | 2.32 | 1.37 ± 0.12 | 2.04 ± 0.23 | 1.52 ± 0.42 | 3.43 |
